Measured values as given in the supplement of paper PMC12042874.
± gives the uncertainty stated by the source.

Experiment: amyloid nucleation score (Sup35N fusion, yeast selection) (log enrichment); library NNK2; higher = more nucleation; inactive = no reads after selection
Method in brief: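 Nucleation score is defined as the DiMSum log enrichment of output over input reads, with centring on the mode score of non-aggregating sequences. A minimum of 100 input reads was required for each sequence. Reads came from Illumina sequencing of plasmid inserts from psi-negative yeast expressing Sup35N fused to peptides of 20 random codons, induced with 100 μM copper sulfate for 24 hours and grown 7 days at 30°C on medium lacking adenine and uracil.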
For HCYSRPFESSSFMNSVSLKY, the amyloid nucleation score was -0.149 ± 0.76.
With HDLKLV the amyloid nucleation score was 0.266 ± 0.41.
HDMRHYKGSPYYLNYWYGDG showed an amyloid nucleation score of -0.623 ± 0.55.
For HDQGSTMFCGRNAATLSQCW, the amyloid nucleation score was 1.54 ± 0.25.
With HEAYLPRLNDVTTSPSPCPY the amyloid nucleation score was 0.487 ± 0.62.
Work on HEHSDVRKKVGWMAFWR yielded an amyloid nucleation score of 4.42 ± 0.06.
With HEVLTVHNKAFRKYLSCIFR the amyloid nucleation score was “inactive”.
For HFCYYMCFEWLDTIVAYYLG, the amyloid nucleation score was -0.337 ± 1.1.
With HFFSSSSMRMYTSYSPLVMW the amyloid nucleation score was 0.215 ± 0.42.
HFKSSKECSKWVGICREEGR gave an amyloid nucleation score of 0.338 ± 0.46.
HFLVHFVFDLIRCVLAFVYC showed an amyloid nucleation score of 0.61 ± 0.12.
In the case of HFRVMHSFQGQYKVIFK, the amyloid nucleation score is reported as 2.73 ± 0.098.
Substance HFSDIRAFCFPCNPIMRVMK has an amyloid nucleation score of -0.406 ± 0.56.
With HGAVRSLSGGHIDRELVCD the amyloid nucleation score was 0.566 ± 0.74.
HGGFRDFQSLSVPIRYDLYD gave an amyloid nucleation score of 1.14 ± 0.2.
In the case of HGGSVWRRHSVFNAICISSS, the amyloid nucleation score is reported as 1.11 ± 0.18.
Work on HGSFAIMP yielded an amyloid nucleation score of -0.529 ± 0.45.
With HGVMKISTCYFGGKESYYVE the amyloid nucleation score was -0.206 ± 0.76.
For HGYSVFYAVYAEGEMNIINA, the amyloid nucleation score was -0.172 ± 1.1.
HGYSWVVI showed an amyloid nucleation score of 0.019 ± 0.19.
Work on HHATKNFCTLFCLKSWGRFS yielded an amyloid nucleation score of 7.767 ± 0.059.
In the case of HHHLRQVLGESQYLSCLWIK, the amyloid nucleation score is reported as 0.388 ± 0.47.
In the case of HHMKGAGPNNLFPGDPSGAR, the amyloid nucleation score is reported as 3.46 ± 0.065.
For HHNPGVWMKGSPCMWKIVQI, the amyloid nucleation score was 4.76 ± 0.076.
Work on HHNTCKGM yielded an amyloid nucleation score of 4.35 ± 0.062.
HHRGMIMLHNINYLRSFNAT gave an amyloid nucleation score of -0.465 ± 0.44.
HHVEGMGYFLS showed an amyloid nucleation score of 0.175 ± 0.25.
Work on HHVGGMTV yielded an amyloid nucleation score of 0.691 ± 0.8.
HIARCNNWNACLMSRRHNCW gave an amyloid nucleation score of 3.6 ± 0.061.
HIHSKQIRVFNFSNFLEQIY gave an amyloid nucleation score of 6.113 ± 0.033.
Work on HIILIEGSMVCQTLVRGDLV yielded an amyloid nucleation score of 5.514 ± 0.042.
HILRQGQYGYVCCASASYEC gave an amyloid nucleation score of 7.312 ± 0.038.
With HIRDTESTTLVRVRGCSSPK the amyloid nucleation score was 0.07 ± 0.61.
Work on HISLVSCHEM yielded an amyloid nucleation score of -0.213 ± 1.1.
For HITRGVVPTAV, the amyloid nucleation score was 0.655 ± 0.74.
In the case of HKGAARQPRPYMEAVIGPHP, the amyloid nucleation score is reported as 0.792 ± 0.27.
In the case of HKGVM, the amyloid nucleation score is reported as -1.06 ± 0.5.
In the case of HKLLCGYTQSQHQRIGFQEF, the amyloid nucleation score is reported as -0.733 ± 1.1.
Work on HKWKII yielded an amyloid nucleation score of -1.55 ± 0.75.
Substance HLCPTHLNNETLRTNFWAN has an amyloid nucleation score of 1.96 ± 0.19.
HLDLDPPM showed an amyloid nucleation score of 0.284 ± 1.1.
With HLFYCRSIGDILRSFGETPT the amyloid nucleation score was “inactive”.
For HLNWHLFILGLFGSATGEDI, the amyloid nucleation score was -1.48 ± 1.1.
Work on HLPGWSGWRSDFDIHTSGVG yielded an amyloid nucleation score of 1.92 ± 0.25.
In the case of HMYLDMPAQLTS, the amyloid nucleation score is reported as 2.69 ± 0.062.
For HNCFFITRCSKVLRAYFSTL, the amyloid nucleation score was -1.4 ± 1.1.
For HNEPG, the amyloid nucleation score was -1.2 ± 0.75.
Substance HNITLLQLNCKWLKMVYEWT has an amyloid nucleation score of 9.366 ± 0.061.
With HNRSFILNTAKFLVVNNPLA the amyloid nucleation score was “inactive”.
For HPLVLWSIELCMMFFNSLTD, the amyloid nucleation score was -0.565 ± 0.48.
HQIHLSY showed an amyloid nucleation score of -0.593 ± 1.1.
In the case of HQRSDYV, the amyloid nucleation score is reported as 0.383 ± 0.74.
For HQYGLNIKCFKCAILSKSGT, the amyloid nucleation score was -0.562 ± 1.
Work on HRCNMGLSWTGVYQRVGKSS yielded an amyloid nucleation score of 0.757 ± 0.57.
In the case of HRFVFGVYWVVVR, the amyloid nucleation score is reported as “inactive”.
HRLFSY showed an amyloid nucleation score of -0.776 ± 0.63.
In the case of HRTKRGRHFIFRTCKQYYPG, the amyloid nucleation score is reported as 2.81 ± 0.071.
Work on HRVWRVAFVQVRSFIY yielded an amyloid nucleation score of -0.038 ± 1.
With HRYSRCIHLVKWVWCVQMIA the amyloid nucleation score was 1.29 ± 0.32.
Work on HSCVYYTVYLRLFSMKGSEN yielded an amyloid nucleation score of 5.361 ± 0.038.
For HSFNYKFLLTI, the amyloid nucleation score was -0.001 ± 0.54.
HSGMRMRPASSCSPKKP showed an amyloid nucleation score of 0.189 ± 0.49.
HSLFRLLRTSVHAEKSWSNS showed an amyloid nucleation score of 2.88 ± 0.063.
Work on HSLLSLLVVFYLQDRSRVIC yielded an amyloid nucleation score of 0.848 ± 0.13.
With HSLRGTWMGMVSASCTPVDM the amyloid nucleation score was 4.27 ± 0.057.
With HSMSKDLGWFHPNVNRFGFF the amyloid nucleation score was “inactive”.
HSPYRFKSKCQRINMFCVIT gave an amyloid nucleation score of 5.713 ± 0.047.
In the case of HSSAFMRMLMFRELRRNSDP, the amyloid nucleation score is reported as “inactive”.
In the case of HSSMLLSVFDLNARK, the amyloid nucleation score is reported as -0.174 ± 0.49.
Substance HSWILNHNIDVTIGNVTWSG has an amyloid nucleation score of 6.863 ± 0.03.
